One block for each binder: values may come before it.
B4: recombinant mouse VEGF164 (ligand, UniProt Q00731-2 27-190, looked up)
chain: APTTEGEQKSHEVIKFMDVYQRSYCRPIETLVDIFQEYPDEIEYIFKPSCVPLMRCAGCCNDEALECVPTSESNITMQIMRIKPHQSQHIGEMSFLQHSRCECRPKKDRTKPENHCEPCSERRKHLFVQDPQTCKCSCKNTDSRCKARQLELNERTCRCDKPRR
notes: biotinylated in the mVEGFR2 AlphaScreen; also called rmVEGF164; mVEGF164

Experiments:
[1] = target: T1, human VEGFR1-Fc chimera (human, UniProt P17948 27-756); experiment: ELISA, coated KLH conjugated VEGF165
T1 construct: bought (R&D Systems); also called hVEGFR1-Fc

[2] = target: VEGF; experiment: cell-based or functional assay
[3] = target: VEGF; experiment: cell-based or functional assay; remark: listed apart in the source
[4] = target: T2, recombinant human VEGF121 (human, UniProt P15692-9 27-147); experiment: binding ELISA, coated rhVEGF121
T2 construct: also called rhVEGF121; hVEGF121
T2 sequence (looked up): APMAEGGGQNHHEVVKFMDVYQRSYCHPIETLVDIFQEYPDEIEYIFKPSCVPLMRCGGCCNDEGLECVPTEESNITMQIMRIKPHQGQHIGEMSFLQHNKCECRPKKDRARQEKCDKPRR
Protocol: Binding to recombinant human VEGF121 is assessed via a solid phase binding ELISA. Briefly, recombinant human VEGF121 (R&D Systems, Minneapolis, Minn., USA) is coated overnight at 4° C. at 1 μg/mL in a 96-well MaxiSorp plate (Nunc, Wiesbaden, Germany). Wells are blocked with a casein solution (1% in PBS).

[5] = target: T3, recombinant human VEGF165 (human, UniProt P15692-4 27-191); experiment: binding ELISA, coated rhVEGF165
T3 construct: also called hVEGF165; rhVEGF165

[6] = target: B4; experiment: binding ELISA, coated rmVEGF164
Protocol: Cross-reactivity to mouse VEGF164 is determined using a binding ELISA. […] Wells are blocked with a casein solution (1% in PBS). […] A mouse VEGF164 reactive mAb is included as positive control.

[7] = target: T3, recombinant human VEGF165; experiment: VEGF/VEGFR1 competition AlphaScreen
Protocol: (§1) Finally, streptavidin donor beads (20 μg/ml) are added and after 1 hour of incubation in the dark, fluorescence is measured on the Envision microplate reader.

[8] = target: T3, recombinant human VEGF165; experiment: VEGF/VEGFR2 competition AlphaScreen
Protocol: as §1

[9] = target: T4, human VEGF-C (human, UniProt P49767 103-227); experiment: binding ELISA on coated VEGFC
T4 construct: also called hVEGF-C
T4 sequence (looked up): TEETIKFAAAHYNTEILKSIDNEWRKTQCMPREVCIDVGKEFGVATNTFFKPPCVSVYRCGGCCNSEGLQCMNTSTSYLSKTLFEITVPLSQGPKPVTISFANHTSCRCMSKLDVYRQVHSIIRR

[10] = target: T3, recombinant human VEGF165; experiment: VEGF165/hVEGFR1-Fc competition ELISA
[11] = target: T5, human PIGF (human, UniProt P49763-2 21-149, limits assumed); experiment: binding ELISA on coated PIGF
T5 construct: also called hPIGF; PLGF
T5 sequence (looked up): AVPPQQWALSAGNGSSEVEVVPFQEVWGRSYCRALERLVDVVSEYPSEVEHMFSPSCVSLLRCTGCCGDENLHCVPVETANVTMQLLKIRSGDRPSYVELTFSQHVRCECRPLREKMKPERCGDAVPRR

[12] = target: T3, recombinant human VEGF165; experiment: hVEGF165/hVEGFR2-Fc competition ELISA
[13] = target: T6, human VEGF-B (human, UniProt P49765-2 22-188, limits assumed); experiment: binding ELISA on coated VEGFB
T6 construct: also called hVEGF-B
T6 sequence (looked up): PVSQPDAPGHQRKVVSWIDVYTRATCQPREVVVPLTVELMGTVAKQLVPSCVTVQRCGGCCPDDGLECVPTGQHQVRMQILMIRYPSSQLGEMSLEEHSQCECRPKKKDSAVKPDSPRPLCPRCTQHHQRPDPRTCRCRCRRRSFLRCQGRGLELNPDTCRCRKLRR

[14] = target: T7, human VEGF-D (human, UniProt O43915 93-201); experiment: binding ELISA on coated VEGF D
T7 construct: also called hVEGF-D
T7 sequence (looked up): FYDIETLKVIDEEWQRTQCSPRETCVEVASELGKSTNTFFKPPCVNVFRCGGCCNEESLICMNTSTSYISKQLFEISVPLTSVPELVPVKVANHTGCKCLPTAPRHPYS
Protocol: Binding to VEGFB, VEGFC, VEGFD and PIGF is assessed via a solid phase binding ELISA. In brief, VEGFB, VEGFC, VEGFD and PIGF (R&D Systems, Minneapolis, Minn., USA) are coated overnight at 4° C. at 1 μg/mL in a 96-well MaxiSorp plate (Nunc, Wiesbaden, Germany). Wells are blocked with a casein solution (1% in PBS). […] As positive controls serial dilutions of the appropriate receptors are taken along and detected with horseradish peroxidase (HRP)-conjugated goat anti-human IgG, Fc specific antibody (Jackson Immuno Research Laboratories Inc., West Grove, Pa., USA) and a subsequent enzymatic reaction in the presence of the substrate TMB (3,3′,5,5′-tetramentylbenzidine) (Pierce, Rockford, Ill., USA).

[15] = target: T3, recombinant human VEGF165; experiment: VEGF165/hVEGFR1-Fc competition AlphaScreen
Protocol: as §1

[16] = target: T3, recombinant human VEGF165; experiment: hVEGF165/hVEGFR2-Fc competition AlphaScreen
Protocol: as §1

[17] = target: B4; experiment: mVEGF164/mVEGFR2-hFc competition AlphaScreen
Protocol: Finally, streptavidin donor beads (20 μg/ml) are added and after 1 hour of incubation fluorescence is measured on the Envision microplate reader.

[18] = target: T3, recombinant human VEGF165; experiment: SPR Biacore T100, hVEGF165 on chip, Two State Reaction model
[19] = target: T3, recombinant human VEGF165; experiment: ka1; SPR Biacore T100, hVEGF165 on chip, Two State Reaction model
[20] = target: T3, recombinant human VEGF165; experiment: kd1; SPR Biacore T100, hVEGF165 on chip, Two State Reaction model
[21] = target: T3, recombinant human VEGF165; experiment: SPR Biacore T100, Two State Reaction model; KD = kd1/ka1 * (kd2/(kd2 + ka2))
[22] = target: T8, human VEGFR2-Fc chimera (human, UniProt P35968 20-764); experiment: ELISA, coated VEGF109
T8 construct: bought (R&D Systems); also called hVEGFR2-Fc; VEGFR2-huFc
Protocol: (§2) Expression is induced by addition of 1 mM IPTG and allowed to continue for 4 hours at 37° C. Cells are harvested by centrifugation and lysed by sonication of the cell pellet. Inclusion bodies are isolated by centrifugation. […] The refolded protein is purified by ion exchange chromatography using a MonoQ5/50GL (Amersham BioSciences) column followed by gel filtration with a Superdex75 10/300 GL column (Amersheim BioSciences). […] To this end, 1 μg/mL of recombinant human VEGF109 is immobilized overnight at 4° C. in a 96-well MaxiSorp plate (Nunc, Wiesbaden, Germany). Wells are blocked with a casein solution (1%).

[23] = target: T1, human VEGFR1-Fc chimera; experiment: ELISA, coated VEGF109
Protocol: as §2

[24] = target: T9, mouse VEGFR2-huFc (mouse, UniProt P35918 20-762, limits assumed); experiment: mVEGF164/mVEGFR2-hFc competition AlphaScreen, unlabelled mVEGF164 as competitor
T9 construct: also called mVEGFR2-huFc; mVEGFR2-hFc
T9 sequence (P35918 20-762 limits assumed): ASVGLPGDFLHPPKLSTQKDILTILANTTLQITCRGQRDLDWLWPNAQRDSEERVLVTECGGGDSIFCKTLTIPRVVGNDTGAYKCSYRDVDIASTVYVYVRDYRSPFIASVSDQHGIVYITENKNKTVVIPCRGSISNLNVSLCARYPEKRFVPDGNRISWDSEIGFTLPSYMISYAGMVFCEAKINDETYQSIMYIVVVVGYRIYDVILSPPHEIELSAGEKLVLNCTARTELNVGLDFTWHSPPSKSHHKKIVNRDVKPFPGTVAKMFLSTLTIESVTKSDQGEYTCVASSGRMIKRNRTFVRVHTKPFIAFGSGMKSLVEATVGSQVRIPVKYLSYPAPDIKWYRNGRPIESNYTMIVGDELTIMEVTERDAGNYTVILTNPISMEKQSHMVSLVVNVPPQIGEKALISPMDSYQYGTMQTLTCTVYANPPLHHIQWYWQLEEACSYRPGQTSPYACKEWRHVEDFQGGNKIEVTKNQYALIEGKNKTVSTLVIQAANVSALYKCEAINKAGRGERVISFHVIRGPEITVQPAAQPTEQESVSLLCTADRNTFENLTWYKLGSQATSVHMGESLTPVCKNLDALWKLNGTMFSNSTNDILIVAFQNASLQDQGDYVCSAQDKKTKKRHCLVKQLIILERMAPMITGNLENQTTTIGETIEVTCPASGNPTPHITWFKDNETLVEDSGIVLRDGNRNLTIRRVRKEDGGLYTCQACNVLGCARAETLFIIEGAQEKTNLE

T1 sequence (P17948 27-756, change not shown): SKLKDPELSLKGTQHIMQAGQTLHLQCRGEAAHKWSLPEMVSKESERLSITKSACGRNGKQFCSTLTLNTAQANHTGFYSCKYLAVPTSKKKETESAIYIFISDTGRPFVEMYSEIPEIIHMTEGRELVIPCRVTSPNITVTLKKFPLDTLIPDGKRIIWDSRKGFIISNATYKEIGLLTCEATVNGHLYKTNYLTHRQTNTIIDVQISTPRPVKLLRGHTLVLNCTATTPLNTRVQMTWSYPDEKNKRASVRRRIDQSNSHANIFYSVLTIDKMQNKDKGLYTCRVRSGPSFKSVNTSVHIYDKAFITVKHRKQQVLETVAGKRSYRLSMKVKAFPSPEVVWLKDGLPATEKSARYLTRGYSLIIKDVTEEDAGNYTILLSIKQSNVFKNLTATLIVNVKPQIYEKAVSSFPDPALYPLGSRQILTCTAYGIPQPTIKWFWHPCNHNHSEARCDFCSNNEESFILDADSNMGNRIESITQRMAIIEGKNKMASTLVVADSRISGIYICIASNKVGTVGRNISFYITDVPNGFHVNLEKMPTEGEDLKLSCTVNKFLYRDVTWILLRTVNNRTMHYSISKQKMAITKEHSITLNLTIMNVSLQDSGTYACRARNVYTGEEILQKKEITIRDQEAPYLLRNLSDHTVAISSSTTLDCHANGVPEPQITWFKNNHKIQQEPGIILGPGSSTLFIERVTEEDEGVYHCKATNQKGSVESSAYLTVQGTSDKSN
T8 sequence (P35968 20-764, change not shown): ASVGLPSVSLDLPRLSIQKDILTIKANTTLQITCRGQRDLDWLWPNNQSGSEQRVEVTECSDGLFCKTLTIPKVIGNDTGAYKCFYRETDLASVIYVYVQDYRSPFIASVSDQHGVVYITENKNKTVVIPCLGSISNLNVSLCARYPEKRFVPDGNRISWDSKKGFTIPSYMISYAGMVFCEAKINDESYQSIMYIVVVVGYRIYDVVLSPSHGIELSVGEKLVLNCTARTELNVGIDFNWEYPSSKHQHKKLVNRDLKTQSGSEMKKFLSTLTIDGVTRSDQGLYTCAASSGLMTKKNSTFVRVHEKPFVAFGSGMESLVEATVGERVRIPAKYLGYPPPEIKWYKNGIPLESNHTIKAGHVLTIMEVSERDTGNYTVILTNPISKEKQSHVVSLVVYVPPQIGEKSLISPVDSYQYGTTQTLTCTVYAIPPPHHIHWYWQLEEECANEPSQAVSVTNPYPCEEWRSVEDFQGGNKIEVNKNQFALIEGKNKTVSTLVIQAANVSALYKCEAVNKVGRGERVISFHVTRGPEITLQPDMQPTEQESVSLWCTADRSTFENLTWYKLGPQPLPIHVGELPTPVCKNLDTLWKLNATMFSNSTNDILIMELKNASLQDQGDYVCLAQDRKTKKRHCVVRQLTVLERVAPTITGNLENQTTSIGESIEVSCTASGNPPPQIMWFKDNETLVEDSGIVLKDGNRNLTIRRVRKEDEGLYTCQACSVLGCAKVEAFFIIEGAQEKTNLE

- binding result [1]: binds
B1: KLH conjugated VEGF165 (ligand, human, UniProt P15692-4 27-191, looked up)
chain: APMAEGGGQNHHEVVKFMDVYQRSYCHPIETLVDIFQEYPDEIEYIFKPSCVPLMRCGGCCNDEGLECVPTEESNITMQIMRIKPHQGQHIGEMSFLQHNKCECRPKKDRARQENPCGPCSERRKHLFVQDPQTCKCSCKNTDSRCKARQLELNERTCRCDKPRR
modifications: conjugated to mariculture keyhole limpet hemocyanin (mcKLH) with EDC
notes: also called VEGF165-KLH

- % inhibition, VEGF HUVEC proliferation assay [2]: 100%
- IC50 (nM), VEGF HUVEC proliferation assay [2]: 0.34 nM
- % inhibition, VEGF HUVEC Erk phosphorylation assay [3]: 94%
- IC50 (nM), VEGF HUVEC Erk phosphorylation assay [3]: 0.18 nM
- EC50 [4]: 0.54 nM
- EC50 [5]: 0.224 nM
- EC50 [6]: 0.464 nM
- % inhibition [7]: 100%
- IC50 [7]: 0.008 nM
- IC50 [8]: 0.007 nM
- binding result [9]: no binding (tested: 5e-7 M)
- % inhibition [10]: 89%
- IC50 [10]: 0.225 nM
- binding result [11]: no binding (tested: 5e-7 M)
- % inhibition [12]: 100%
- IC50 [12]: 0.164 nM
- binding result [13]: no binding (tested: 5e-7 M)
- binding result [14]: no binding (tested: 5e-7 M)
- % inhibition [15]: 98%
- IC50 [15]: 0.009 nM
- % inhibition [16]: 100%
- IC50 [16]: 0.007 nM
- IC50 [17]: 108 nM
- ka2 [18]: 0.014 s⁻¹
- kd2 [18]: 0.00026 s⁻¹
- kon [19]: 1.2e+06 M⁻¹ s⁻¹
- koff [20]: 0.0091 s⁻¹
- Kd [21]: 0.14 nM
B2: VEGFBII022 (VHH)
chain: EVQLVESGGGLVQTGDSLRLSCEVSGRTFSSYSMGWFRQAQGKEREFVVAISKGGYKYDSVSLEGRFTISKDNAKNTVYLQINSLKPEDTAVYYCASSRAYGSSRLRLADTYEYWGQGTQVTVSSGGGGSGGGSEVQLVESGGGLVQPGGSLRLSCVASGIRFMSMAWYRQAPGKHRELVARISSGGTTAYVDSVKGRFTISRDNSKNTVYLQMNSLKAEDTAVYYCNTFSSRPNPWGAGTQVTVSS
notes: biparatopic bivalent VHH in one chain; also called VEGFBII23B04-9GS-5B05

- binding result [22]: binds
- binding result [23]: binds
B3: recombinant human VEGF109 (ligand, UniProt P15692 207-315, looked up)
chain: APMAEGGGQNHHEVVKFMDVYQRSYCHPIETLVDIFQEYPDEIEYIFKPSCVPLMRCGGCCNDEGLECVPTEESNITMQIMRIKPHQGQHIGEMSFLQHNKCECRPKKD
notes: also called rhVEGF109

Binder: B4
- IC50 [24]: 0.05 nM

— US20170247475A1 (Boehringer Ingelheim, published 2017)
